Data taken from IntAct's records for PubMed 16520382.

B1: SHC-transforming protein 1 (Homo sapiens), P29353-1 (parent)
chain: MDLLPPKPKYNPLRNESLSSLEEGASGSTPPEELPSPSASSLGPILPPLPGDDSPTTLCSFFPRMSNLRLANPAGGRPGSKGEPGRAADDGEGIVGAAMPDSGPLPLLQDMNKLSGGGGRRTRVEGGQLGGEEWTRHGSFVNKPTRGWLHPNDKVMGPGVSYLVRYMGCVEVLQSMRALDFNTRTQVTREAISLVCEAVPGAKGATRRRKPCSRPLSSILGRSNLKFAGMPITLTVSTSSLNLMAADCKQIIANHHMQSISFASGGDPDTAEYVAYVAKDPVNQRACHILECPEGLAQDVISTIGQAFELRFKQYLRNPPKLVTPHDRMAGFDGSAWDEEEEEPPDHQYYNDFPGKEPPLGGVVDMRLREGAAPGAARPTAPNAQTPSHLGATLPVGQPVGGDPEVRKQMPPPPPCPGRELFDDPSYVNVQNLDKARQAVGGAGPPNPAINGSAPRDLFDMKPFEDALRVPPPPQSVSMAEQLRGEPWFHGKLSRREAEALLQLNGDFLVRESTTTPGQYVLTGLQSGQPKHLLLVDPEGVVRTKDHRFESVSHLISYHMDNHLPIISAGSELCLQQPVERKL

Variants of: B1
Conditions: with grb2_human GRB2, P62993
Sequence of grb2_human GRB2, P62993 (P62993 whole entry, looked up): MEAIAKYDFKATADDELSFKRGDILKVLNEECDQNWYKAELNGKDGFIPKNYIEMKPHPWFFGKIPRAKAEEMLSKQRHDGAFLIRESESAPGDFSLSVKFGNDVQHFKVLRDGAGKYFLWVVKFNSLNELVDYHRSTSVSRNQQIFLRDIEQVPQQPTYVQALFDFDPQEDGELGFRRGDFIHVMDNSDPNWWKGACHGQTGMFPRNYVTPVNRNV

Row | Variant | effect of a mutation on the interaction
1 | P47A;P50A | decreasing interaction
